Source: the DeepSol protein solubility set

Test: soluble on expression in E. coli; label from the status in PepcDB or PDB records

Row | Sequence | soluble on expression in E. coli
1 | MKIAGFDIGGANTDMAIIDFGSDGDMKEVRVDFRYLPMWLRKDELAETLLEMVGDDLHELEGVGVCMTAELVDAYPSKAAGVADIIDRVEGAFDVPVAYVSLSGMVDASEALADPMNIAAANWVATSQIASAMSSDCIMVDVGSTTTDIIPVKDGFEAARGRNDLERLSTGELVYTGTLRTNVATIVDRVPLQDKWFRVSSELFAVTADVHRVLGNIGESDYTCSTPDGAGKSVEECMLRIARVLCADLELLSPGDVLDVAEYIYHQQILKIAEGIAEVSEREGLEEVVTTGLGMKILAQRAAEVLELECRTMDEFLTEEECVVAPAVGTALLMEDYLQAQGLLEHHHHHH | not soluble
2 | MLRIAFASALRFVRRHSSVLQADFEGGVSQSHISRLERGESSVTLERLEEIAAHLNVHPLSLIALTWGASEQIPPAELLERVRRELESVEGLLRPIAIDDQPAVHPRIIEAEKVRNEVQRLKALGHTKAEISRLMGIAKSTAARHW | not soluble
3 | MGSDKIHHHHHHLNAAAQTTPEIRRPQLGWTMLETPRFLSETALLALAWPMLAKAPQGDGHPVMVLPGFATNDTMTVLLRSFLARLGYQVFPWDLGWNLDQHSAGENGEHLAARIDAIAAETGRKVSLVGWSLGGVIAREAARRDHGGLRQVVTLGSPFTGNPRATSLTSLYELLTGNKASSEKSAARYARGHHPLPVPSTAIFSRTDGITAWENCVSETDDRTENIEVHCSHFGFVANPGVFWAVADRLAQPEGQWRKFDPKGCFAAFYP | not soluble
4 | MKLCFNEATTLENSNLKLDLELCEKHGYDYIEIRTMDKLPEYLKDHSLDDLAEYFQTHHIKPLALNALVFFNNRDEKGHNEIITEFKGMMETCKTLGVKYVVAVPLVTEQKIVKEEIKKSSVDVLTELSDIAEPYGVKIALEFVGHPQCTVNTFEQAYEIVNTVNRDNVGLVLDSFHFHAMGSNIESLKQADGKKIFIYHIDDTEDFPIGFLTDEDRVWPGQGAIDLDAHLSALKEIGFSDVVSVELFRPEYYKLTAEEAIQTAKKTTVDVVSKYFSMLEHHHHHH | soluble
5 | MGSDKIHHHHHHMKLPPLQIGDLKADIPIIQGGMGVGISRSSLASAVANCGGVGTISGVQIGFDEPDFETNTFNANIRALNKHIKKAKQESKRGIIAVNFMVAMNDYDKYVKSAVDAGADLIVSGAGLPTALPKIVEGSKVKIAPIVSSPKAASVICKMWDKHHGRIPDLIVVEGPEAGGHLGFKAEQVKGSHEELSDILTGVLTAIKPFEEKHGVKIPVVCGGGVFYGKDIAKYIKLGASGVQMATRFIATEECDANLNYKNVYVNCKEDDIKIVKSPVGMPGRAISNKFVQSNDKNITITKCYNCLKPCNPKDTPYCISKALINAVNGNVDEALLFTGAKSYKIDKIVKVKELINELISDAECEF | not soluble
6 | MAELKALQNGSDIRGIALDTEEQTATLTATAVAEIAVGVVRWLQDKKQLPRKAQQRLTIAIGHDSRLTAEPIKQALVDTFLSLGIQVIDVGLATTPAMFMATQFPTLQCDAAIMITASHLPYYFNGLKFFTAEGGAEKEDIRYILSHTDPLTANENGTLMKQELLPIYAEHLVEKIRQGIHSPEEKPLQGFRIIVDAGNGAGGFFAEQVLQVLGADTTGSQFLEPDGHFPNHVPNPDNSEAMKSIQTAVLANQADLGIIFDTDVDRSAVVDQSGEVLNRNNLIAVLAAIVLKEAPGSYIVTNSPTSSHLKTFIEEKGGQQIRYISGYRNVINKMIELNHGGFQTPLAIETSGHAAFQENYNLDDGAYVVAKILMLLPELKQNNQTLGDLIATLKQPAETNEFRFKITAEDVTCYGQQVLRDFELFVENQADFAVDRENQEGVRGNVSGQYGSGWFLLRLSLHEPLLVLQVENDQSDKNACVIEKIATFLQKYEEIDSQQIEK | not soluble
7 | MSATASVATRHDWSLAEVRALFEQPFNDLLFQAQTVHRAHFDPNRVQVSTLLSIKTGACPEDCKYCPQSGHYNTGLDKEKLMEVQKVLEAAAEAKAIGSTRFCMGAAWKHPSAKDMPYVLEMVKGVKKLGLETCMTLGRLTQEQTQALADAGLDYYNHNLDTSPEFYGNIITTRTYSERLQTLAYVREAGMKICSGGILGMGESVDDRAGLLIQLANLPEHPESVPINMLVKVKGTPLAEEKDVDPFDFIRTLAVARIMMPKSHVRLSAGREQMNEQMQALAFMAGANSIFYGEKLLTTKNPQAEKDMQLFARLGIKPEEREEHADEVHQAAIEQALVEQRESKLFYNAASA | not soluble
8 | MLEIEIVYGLPDRQVLKTMQLAEGTTVRAAALQSGLDGIFEDLNLHSAPLGIFGKAVKDDTPLRDGDRIEVYRPLLIDPKEARRKRVQNQEE | not soluble
9 | SKDPAFTALLTTQLQVQREIVNKHNELRKAVSPPASNMLKMEWSREVTTNAQRWANKCTLQHSDPEDRKTSTRCGENLYMSSDPTSWSSAIQSWYDEILDFVYGVGPKSPNAVVGHYTQLVWYSTYQVGCGIAYCPNQDSLKYYYVCQYCPAGNNMNRKNTPYQQGTPCAGCPDDCDKGLCTNSCQYQDLLSNCDSLKNTAGCEHELLKEKCKATCLCENKIY | soluble
10 | MKPAKVSLLRRLLHSLKHVDCNIAKRFPSTIKIVKLLMIFMVFTPISSIYAEDVYQNFEELKNNEDPSDYGVVTKETGSPVLVLAIHGGGIEGGTSEVARELSKEYSMYLFEGLKSAGNSVLHITSTHFDEPRALKMTGNHEYVISLHGYAEEDQQIEVGGTDRVRAADLVEKLQHAGFPAVLLNMDHPHAGVSPNNIANKSKTGLSIQIEMSTGFRKSLFGIFSLKSRAVTQNERFYEFTEVMFRFLKNSYLEHHHHHH | not soluble
11 | PHSHPALTPEQKKELSDIAHRIVAPGKGILAADESTGSIAKRLQSIGTENTEENRRFYRQLLLTADDRVNPCIGGVILFHETLYQKADDGRPFPQVIKSKGGVVGIMVDKGVVPLAGTNGETTTQGLDGLSERCAQYKKDGADFAKWRCVLKIGEHTPSALAIMENANVLARYASICQQNGIVPIVEPEILPDGDHDLKRCQYVTEKVLAAVYKALSDHHIYLEGTLLKPNMVTPGHACTQKYSHEEIAMATVTALRRTVPPAVTGVTFLSGGQSEEEASINLNAINKCPLLKPWALTFSYGRALQASALKAWGGKKENLKAAQEEYVKRALANSLACQGKYTSSGQAGAAASESLFISNHAY | soluble
12 | MGSDKIHHHHHHMVVTEYELKPQNFPRFPLDWSEIFGRKAKIVVEIGFGNGEFLAELARRHPEKDFVGFEVSITSFVKAQKKFKRYNLKNVRLVKVDARFGLRELFPDNSVEKVYINFPCPWPKKRHESRRITSYDFLQTLSAVLEMDGTVEFATDEEWYAREVLDTFESSEYFVVDVFEENFKRDVETRYERKWKSQGKKTFLIVARKVKNGTVKRLMEGENTMAHSVFEGNVTWEKLKELEGKVFKDKNKIFVVKKVYRDGDYLLKVISTDEGGFQQVYYLNLSGRDGKWVLKLDEGSDPYRTPALKWSLRRIPEELTAQGSP | not soluble
13 | MQEESYYNLTVGDTHDRLHNFQITVDTDYRNFVQLVNTMRSPNIAQQDRAFLQLQQLGLQHPDYIRKARVPETMRQFAEGAAGKRRIRSCHGTYLHWYDEGLKVDMKSGEAGTCENWIIEDWNEKVVFRAVDPRGKYLRACLGSNQLTLVYIPEPTELWSPFENGNGTWSFLSSNGTWLSAHEDGQVCTVKDRQACEEFLLESW | not soluble
14 | MGHHHHHHSHMLSHNTMMKQRKQQATAIMKEVHGNDVDGMDLGKKVSIPRDIMLEELSHLSNRGARLFKMRQRRSDKYTFENFQYQSRAQINHSIAMQNGKVDGSNLEGGSQQAPLTPPNTPDPRSPPNPDNIAPGYSGPLKEIPPEKFNTTAVPKYYQSPWEQAISNDPELLEALYPKLFKPEGKAELPDYRSFTRVATPFGGFEKASRMVKFKVPDFELLLLTDPRFMSFVNPLSGRRSFNRTPKGWISENIPIVITTEPTDDTTVPESEDL | not soluble
15 | MGHHHHHHSHMAFFRRSLMTENAVLQLRAERIARATRPFLARGNRVRRCQRCLLPEKLCLCSTITPAQAKSRFCLLMFDTEPMKPSNTGRLIADILPDTVAFQWSRTEPSQDLLELVQNPDYQPMVVFPASYADEQREVIFTPPAGKPPLFIMLDGTWPEARKMFRKSPYLDNLPVISVDLSRLSAYRLREAQAEGQYCTAEVAIALLDMAGDTGAAAGLGEHFTRFKTRYLAGKTQHLGSITAEQLESV | soluble
16 | MGSDKIHHHHHHMEENKQTLYNDELLDILPDGVIIFNISGEVIQLNRQALTELHVHSSVNAMMPLPTNILFKLLNNKEDILSVILEKIRQGEQTYSLSEHTFMQEQVDYTQFPIRGDFATIKEDGNLKKILFFFRNITVELTQEYILNTALQRTRIYPWYYDINRSEFTLDNRYFEHLGISAGENNTLTMEEYVNMIHPDDRQAMADAFIVQLSGMETFDKSVPFRLHRGDGTWEWFEGQSTYIANISGHPYRLVGICMSIQEYKDIENTLIEARKKAEESDRLKMAFLANMSHEIRTPLNAIVGFSDVIGSTYDELSEEERADFVRLISINSEHLVRLIDDVLDLSKIESNTIKFTFTDCSLRSLMIDVEKEQTMKPISEIEIRALLPNEDVYINTDATRLKQVISNFINNARKFTEKGYIHFGYAVDSVDASSVHVFVEDTGSGIPKECQKEIFDRFYKVDTFKQGTGLGLSICKTIVEHLQGDISVESEMGKGSRFIVTLPFERQTED | not soluble
17 | MSEPTYFMPPEWAPHASTWLSWPHKLESWPGKFEPVPAVFAELAYQLSRSETVNINVLDDAMEAQARELLKERDPEGKYAERIVFHRIPTNDAWCRDHGPNYVIRTQDGRRDKVIMNWEYNAWGGKYEPYDDDNAVPERVAKAQGLPMVSTGMVLEGGAIDVNGAGLLLTTTACLLNPNRNPSLGKAEIEAQLRRYLGIEKVLWLGDGIAGDDTDGHVDDMARFVNENTVVIAVEEDPEDENYKPLRENYELLKTMTGLDGKPLNIVKLPMPEPVYYDGERLPASYANFYIANTVVLVPTYRCPRDQQAIDILQQCFPKREVVGIDCSDLIWGLGAIHCVTHEEPAMLEHHHHHH | soluble
18 | MPGVKVKETESFELALKKFKKQCEKAGILSEVRKREHYEKPSIKRKKKAIAARKRAMKKQRKMMDLEHHHHHH | not soluble
19 | GSGSRMKTVDKSKTLTKFEEFFSLQDYKDRVFEAIEKYPNVRSIEVDYLDLEMFDPDLADLLIEKPDDVIRAAQQAIRNIDRLRKNVDLNIRFSGISNVIPLRELRSKFIGKFVAVDGIVRKTDEIRPRIVKAVFECRGCMRHHAVTQSTNMITEPSLCSECGGRSFRLLQDESEFLDTQTLKLQEPLENLSGGEQPRQITVVLEDDLVDTLTPGDIVRVTGTLRTVRDERTKRFKNFIYGNYTEFLEQEFEELQISEEDEEKIKELAGDPNIYEKIIR | soluble
20 | MIKILQTKSGVTKFQVLIEIAAHQPNVRQKEIAAKIGITPQAVSEYIKELVNDGLIVTEGRVRYRITKEGVEWVLENATEMKQYARFVMEDIISHVSTWTAITREEVKEGQQVYLKMDHGLLYVSSREVTGASGAIISDAAEGEDVGVTSLKGLIDLENATITICKVPRVERGGSRKVDLERLKMLADAKPYIAAIGVESLIALRKIGISPNVMFGTNESVIEAAYHGLSSLVVSVDEQVSALLNRLETENLEYELVDLTVE | not soluble
